Data as given in patent US20030228675.

Assays:
[1] = molecular target: GST-hUpf1 1019-1118 (GST fusion protein containing the carboxyl-terminal region of hUpf1, amino acids 1019-1118) (UniProt Q92900)
[2] = system: GST-p53 1-70 (GST fusion protein containing the first 70 amino acids of p53)

Row | Substance | phosphorylation in immune complex kinase assay [1] | specific kinase activity in immune complex kinase assay [2] | phosphorylation in immune complex kinase assay, compared with GST-hUpf1 1019-1118 [2] | specific kinase activity (ratio of 32P incorporation into substrate to level of HA-tagged protein kinase), relative to ATMWT [2] | phosphorylation in immune complex kinase assay (GST-p53 1-70 (S15A))
1 | HA-ATMWT (HA-tagged wild-type ATM) | this substrate was phosphorylated by both ATM and ATX, with the latter protein kinase showing the higher specific catalytic activity | the specific kinase activity of HA-ATXWT towards GST-p531-70 was significantly higher than that of HA-ATM |  |  | 
2 | HA-ATXWT (HA-tagged wild-type long ATX) | this substrate was phosphorylated by both ATM and ATX, with the latter protein kinase showing the higher specific catalytic activity |  | GST-p531-70 was more avidly phosphorylated by ATX than was the GST-hUpf11019-1118 substrate | the specific kinase activity of ATXWT was approximately 3.5-fold higher than that of ATMWT | phosphorylation of GST-p531-70 by ATXWT was nearly abolished by substitution of the Ser-15 residue in p53 with Ala
